Assay results as given in US20180339017A1 (Merck Sharp & Dohme, published 2018).
Where two headings read alike, the source gives them in different places. Starred links: 1 amine or outer side, 2 acyl side, 3 side chain; linkers in the order of their positions; H or OH if unused. Non-standard residues stand in square brackets, D forms with d. Groups on a side chain read outwards from the residue. No end group written: not given here. *: point of attachment. γGlu = O=C(O)[C@H](CCC(=O)[*:2])N[*:1]; Palmitoyl = CCCCCCCCCCCCCCCC(=O)*

Tests used:
Assay in all cases: cell-based or functional assay
human glucagon receptor [1] = biological target: T1, human glucagon receptor (human, UniProt P47871 26-477)
human GLP-1 receptor [2] = biological target: T2, human GLP-1 receptor (human, UniProt P43220 24-463)
human glucagon receptor [3] = biological target: T1, human glucagon receptor; remark: listed apart in the source
human GLP-1 receptor [4] = biological target: T2, human GLP-1 receptor; remark: listed apart in the source

T1 sequence (P47871 26-477): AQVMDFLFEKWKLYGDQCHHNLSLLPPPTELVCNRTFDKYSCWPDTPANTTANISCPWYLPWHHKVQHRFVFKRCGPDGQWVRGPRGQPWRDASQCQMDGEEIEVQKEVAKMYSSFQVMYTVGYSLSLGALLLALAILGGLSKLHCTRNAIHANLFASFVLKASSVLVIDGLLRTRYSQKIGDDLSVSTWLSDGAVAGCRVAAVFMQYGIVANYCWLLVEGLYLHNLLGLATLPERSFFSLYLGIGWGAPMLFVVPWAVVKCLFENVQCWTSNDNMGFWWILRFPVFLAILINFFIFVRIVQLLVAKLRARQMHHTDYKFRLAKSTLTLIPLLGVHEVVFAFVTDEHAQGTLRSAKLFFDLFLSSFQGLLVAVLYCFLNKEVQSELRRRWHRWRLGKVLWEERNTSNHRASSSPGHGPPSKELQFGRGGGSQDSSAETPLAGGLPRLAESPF

EC50 hGCGR (cAMP activity assay) (human glucagon receptor [1]) | EC50 hGLP1R (cAMP activity assay) (human GLP-1 receptor [2]) | EC50 hGCGR (cAMP activity assay) (human glucagon receptor [3]) | EC50 hGLP1 (cAMP activity assay) (human GLP-1 receptor [4]) | Binder
0.08 nM | 0.05 nM | – | – | HSQGTFTSDYSKYLDSRMAYDFVQWLMNT-NH2 [PD56]
0.03 nM | 0.02 nM | – | – | HSHGTFTSDYSKYLDSRRAQDFVQWLMTT-NH2 [PD51]
– | – | 0.02 nM | 0.05 nM | H[dS]QGTFTSDK([γGlu-γGlu-Palmitoyl])SKYLDARAAHDFVQWLLNT-NH2 (N-terminus assumed; SMILES CCCCCCCCCCCCCCCC(=O)N[C@@H](CCC(=O)N[C@@H](CCC(=O)NCCCC[C@H](NC(=O)[C@H](CC(=O)O)NC(=O)[C@H](CO)NC(=O)[C@@H](NC(=O)[C@H](Cc1ccccc1)NC(=O)[C@@H](NC(=O)CNC(=O)[C@H](CCC(N)=O)NC(=O)[C@@H](CO)NC(=O)[C@@H](N)Cc1c[nH]cn1)[C@@H](C)O)[C@@H](C)O)C(=O)N[C@@H](CO)C(=O)N[C@@H](CCCCN)C(=O)N[C@@H](Cc1ccc(O)cc1)C(=O)N[C@@H](CC(C)C)C(=O)N[C@@H](CC(=O)O)C(=O)N[C@@H](C)C(=O)N[C@@H](CCCNC(=N)N)C(=O)N[C@@H](C)C(=O)N[C@@H](C)C(=O)N[C@@H](Cc1c[nH]cn1)C(=O)N[C@@H](CC(=O)O)C(=O)N[C@@H](Cc1ccccc1)C(=O)N[C@H](C(=O)N[C@@H](CCC(N)=O)C(=O)N[C@@H](Cc1c[nH]c2ccccc12)C(=O)N[C@@H](CC(C)C)C(=O)N[C@@H](CC(C)C)C(=O)N[C@@H](CC(N)=O)C(=O)N[C@H](C(N)=O)[C@@H](C)O)C(C)C)C(=O)O)C(=O)O) [TP559]
– | – | 0.02 nM | 0.05 nM | H[dS]QGTFTSDK([γGlu-γGlu-Palmitoyl])SKYLDSRRAHDFVQWLLNT-NH2 (N-terminus assumed; SMILES CCCCCCCCCCCCCCCC(=O)N[C@@H](CCC(=O)N[C@@H](CCC(=O)NCCCC[C@H](NC(=O)[C@H](CC(=O)O)NC(=O)[C@H](CO)NC(=O)[C@@H](NC(=O)[C@H](Cc1ccccc1)NC(=O)[C@@H](NC(=O)CNC(=O)[C@H](CCC(N)=O)NC(=O)[C@@H](CO)NC(=O)[C@@H](N)Cc1c[nH]cn1)[C@@H](C)O)[C@@H](C)O)C(=O)N[C@@H](CO)C(=O)N[C@@H](CCCCN)C(=O)N[C@@H](Cc1ccc(O)cc1)C(=O)N[C@@H](CC(C)C)C(=O)N[C@@H](CC(=O)O)C(=O)N[C@@H](CO)C(=O)N[C@@H](CCCNC(=N)N)C(=O)N[C@@H](CCCNC(=N)N)C(=O)N[C@@H](C)C(=O)N[C@@H](Cc1c[nH]cn1)C(=O)N[C@@H](CC(=O)O)C(=O)N[C@@H](Cc1ccccc1)C(=O)N[C@H](C(=O)N[C@@H](CCC(N)=O)C(=O)N[C@@H](Cc1c[nH]c2ccccc12)C(=O)N[C@@H](CC(C)C)C(=O)N[C@@H](CC(C)C)C(=O)N[C@@H](CC(N)=O)C(=O)N[C@H](C(N)=O)[C@@H](C)O)C(C)C)C(=O)O)C(=O)O) [TP535]
0.01 nM | 0.01 nM | – | – | HSQGTFTSDYSKYLDMQRAHDFVQWLMNT-NH2 [PD55]
0.02 nM | 0.01 nM | – | – | HSQGTFTSDYSKYLDSRRAQDFVQWLLNQ-NH2 [PD57]
0.03 nM | 0.02 nM | – | – | HSQGTFFSDYSKYLDSRRAQDFVQWLLET-NH2 [PD58]
0.03 nM | 0.02 nM | – | – | HSQGIFFSDYSKYLDSRRAQDFVQWLMNT-NH2 [PD52]
0.02 nM | 0.01 nM | – | – | HSQGTFTSDYSKYLDSRRAQDFVDWLINS-NH2 [PD50]
0.02 nM | 0.01 nM | – | – | HSQGTFTSDYSKYLDSRRAQDFVQWLLDS-NH2 [PD59]

Continued, binder first:

Binder | EC50 hGCGR (cAMP activity assay) (human glucagon receptor [1]) | EC50 hGLP1R (cAMP activity assay) (human GLP-1 receptor [2]) | EC50 hGCGR (cAMP activity assay) (human glucagon receptor [3]) | EC50 hGLP1 (cAMP activity assay) (human GLP-1 receptor [4])
HSQGTFTSDYSKYLDSLMAQDFVQWLMST-NH2 [PD22] | 0.02 nM | 0.03 nM | – | –
HSQGTFTSDYSKYLDSRRAQDFVQWLINY-NH2 [PD31] | 0.06 nM | 0.04 nM | – | –
HSQGTFTSDYSKYLDSIRAQDFVQWLMDT-NH2 [PD36] | 0.04 nM | 0.06 nM | – | –
HSQGTFFSDYSHWLDSRRAQDFVQWLMNT-NH2 [PD43] | 0.03 nM | 0.04 nM | – | –
HSQGTFTSDYSKYLDELRAYDFVQWLMNT-NH2 [PD27] | 0.05 nM | 0.03 nM | – | –
HSQGTFTSDYSKYLDWRRAQDFVQWLQNT-NH2 [PD44] | 0.02 nM | 0.01 nM | – | –
HSQGTFTSDYSKYLDWRRAQDFVQWLLNT-NH2 [PD23] | 0.03 nM | 0.05 nM | – | –
HSQGTFTSDYSKYLDSKRAHDFVQWLLNT-NH2 [PD45] | 0.03 nM | 0.02 nM | – | –
HSQGTFTSDYSKYLDSRRAQDFVDWLLNA-NH2 [PD48] | 0.07 nM | 0.02 nM | – | –
HSQGTFTSDYSKYLDARRAQDFVQWLIRT-NH2 [PD25] | 0.04 nM | 0.02 nM | – | –
